Assay results as given in patent publication US7125658B2, “Small protein that interacts with a ribonucleotide reductase subunit and uses thereof” (The Trustees of Columbia University in the City of New York, priority 1998, dated 2006).

Assays:
[1] = biological target: T1, Recombinant yeast Rnr1 protein (large subunit of ribonucleotide reductase) (yeast (Saccharomyces cerevisiae), UniProt P21524 1-888); assay: BIAcore SPR, calculated from rate constants; calculated from the rate constants, not the equilibrium fit
T1 construct: It is in monomer/dimer/tetramer equilibrium depending on dTTP; also called yeast R1 protein
T1 sequence (looked up): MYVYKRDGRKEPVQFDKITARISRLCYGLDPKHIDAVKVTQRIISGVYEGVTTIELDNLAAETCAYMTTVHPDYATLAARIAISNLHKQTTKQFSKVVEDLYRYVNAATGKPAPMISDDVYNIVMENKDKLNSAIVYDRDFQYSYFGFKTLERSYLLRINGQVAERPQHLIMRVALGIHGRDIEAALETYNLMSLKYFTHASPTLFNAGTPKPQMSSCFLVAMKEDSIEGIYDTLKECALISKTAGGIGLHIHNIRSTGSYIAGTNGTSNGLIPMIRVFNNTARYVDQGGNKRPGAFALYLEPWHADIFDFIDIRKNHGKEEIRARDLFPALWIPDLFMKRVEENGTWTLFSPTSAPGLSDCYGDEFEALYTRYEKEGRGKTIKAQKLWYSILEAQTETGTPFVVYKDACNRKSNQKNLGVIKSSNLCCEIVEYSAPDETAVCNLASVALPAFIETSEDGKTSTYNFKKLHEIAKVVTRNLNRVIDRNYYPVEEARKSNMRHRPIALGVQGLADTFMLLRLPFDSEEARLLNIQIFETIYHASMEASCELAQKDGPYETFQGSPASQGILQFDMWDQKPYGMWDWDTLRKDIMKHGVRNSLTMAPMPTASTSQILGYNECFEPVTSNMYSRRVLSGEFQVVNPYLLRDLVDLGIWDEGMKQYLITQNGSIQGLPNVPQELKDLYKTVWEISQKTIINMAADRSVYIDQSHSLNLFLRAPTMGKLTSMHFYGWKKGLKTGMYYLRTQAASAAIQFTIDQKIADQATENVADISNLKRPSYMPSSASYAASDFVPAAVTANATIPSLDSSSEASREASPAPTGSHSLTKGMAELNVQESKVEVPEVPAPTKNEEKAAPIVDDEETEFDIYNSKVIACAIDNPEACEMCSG
Procedure: (§1) BIAcore biosensor analysis. The interaction between Sml1p and either yeast Rnr1p or mouse R1 protein was studied by biosensor analysis using the BIAcore method (Biacore AB). The Sml1 protein was prepared in 10 mM sodium acetate, pH 5.2, at a concentration of 0.44 mg/ml; it was then immobilized on the dextran layer of the sensor chip as described previously for the mouse R2 protein (17). The ligand proteins were equilibrated with running buffer (10 mM Hepes-KOH, pH 7.4, 200 mM potassium acetate, 1 mM EDTA, 5 mM magnesium acetate and 0.05% Surfactant P20 (BIAcore). The interactions were studied at a constant temperature of 22° C. and a constant flow of 5 μl/min. Kinetics for the interaction of Sml1p with yeast Rnr1p was determined by allowing the immobilized Sml1p to interact with increasing concentrations of Rnr1p (18). The resonance unit (RU) is proportional to the mass, and 1 RU corresponds to a surface concentration of 1 pg of protein/mm² of the 100 nm thick dextran layer (19).
In control experiments, where the same series of Rnr1p solutions passed a sensor chip without immobilized Sml1p, a "bulk effect" gave a response of only about 60 RU. […] Calculating the equilibrium dissociation constant from these rate constants gave a K_0 of about 0.25 µM, which is close to the directly determined K_0.

[2] = biological target: T2, yeast Rnr1p (Saccharomyces cerevisiae, UniProt P21524); assay: BIAcore biosensor analysis, immobilized Sml1p and yeast Rnr1p; assay type: binding
T2 construct: made in house; host or cells: E. coli BL21 (DE3), pET3a
T2 sequence (P21524 1-888): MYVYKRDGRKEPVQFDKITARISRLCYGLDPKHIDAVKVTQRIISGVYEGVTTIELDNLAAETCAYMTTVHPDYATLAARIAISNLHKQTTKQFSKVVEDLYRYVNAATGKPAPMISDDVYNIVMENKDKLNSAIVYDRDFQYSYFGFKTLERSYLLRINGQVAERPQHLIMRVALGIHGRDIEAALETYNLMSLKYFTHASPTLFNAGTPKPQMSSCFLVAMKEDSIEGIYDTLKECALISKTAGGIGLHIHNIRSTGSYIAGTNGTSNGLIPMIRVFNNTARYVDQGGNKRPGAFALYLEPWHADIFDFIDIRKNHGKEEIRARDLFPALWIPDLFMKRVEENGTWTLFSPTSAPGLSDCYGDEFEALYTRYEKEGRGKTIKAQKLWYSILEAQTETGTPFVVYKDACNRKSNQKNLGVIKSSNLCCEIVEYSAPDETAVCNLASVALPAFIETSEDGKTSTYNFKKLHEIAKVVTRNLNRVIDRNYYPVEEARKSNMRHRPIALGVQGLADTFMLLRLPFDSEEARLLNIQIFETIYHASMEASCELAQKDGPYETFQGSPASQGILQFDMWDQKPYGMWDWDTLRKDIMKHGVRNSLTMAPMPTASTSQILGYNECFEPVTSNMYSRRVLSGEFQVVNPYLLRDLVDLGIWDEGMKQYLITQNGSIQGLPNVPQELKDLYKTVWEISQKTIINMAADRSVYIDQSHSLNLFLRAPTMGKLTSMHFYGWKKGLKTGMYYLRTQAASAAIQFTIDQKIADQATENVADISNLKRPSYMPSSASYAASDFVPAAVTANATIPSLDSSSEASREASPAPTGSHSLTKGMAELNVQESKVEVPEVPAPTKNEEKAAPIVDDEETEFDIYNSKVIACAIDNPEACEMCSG
Procedure: as §1, with “protein/mm^2” for “protein/mm²”
Kinetic studies of the interaction between the Rnr1 and Sml1 proteins using a biosensor technique. To obtain a quantitative description of the Rnr1p and Sml1p interaction, we immobilized the Sml1 protein to the dextran layer of a sensor chip, and then injected a series of solutions containing increasing concentrations of Rnr1p to the same sensor chip. The immobilization of Sml1p at a concentration of 0.44 mg/ml gave an increase of 91 resonance units (RU), which correspond to 91 pg/mm^2. With a surface of 0.8 mm 2, 91 RU corresponds to a total of 72.8 pg of bound Sml1p, which can be compared with the total injected amount of 15.4 μg. This low degree of attachment (only 0.0005%) makes it unlikely that the protein is attached to multiple binding sites.
In control experiments, where the same series of Rnr1p solutions passed a sensor chip without immobilized Sml1p, a “bulk effect” gave a response of only about 60 RU. The same background value of about 60 RU was observed when bovine serum albumin or Rnr2p/Rnr4p heterodimer was injected at a concentration of 0.1 mg/ml (data not shown). In FIG. 1B, the response at equilibrium is plotted against the concentration of injected Rnr1p. […] These values correspond to 691 pg/mm^2 or a total of 553 pg or 5.5 fmol Rnr1p monomer bound to about 6.2 fmol immobilized Sml1p, i.e. nearly one Rnr1p monomer bound per molecule of immobilized Sml1p. […] Calculating the equilibrium dissociation constant from these rate constants gave a K0 of about 0.25 μM, which is close to the directly determined K0.

[3] = BIAevaluation software, lower curves of FIG. 12A

B1: Recombinant yeast Sml1 protein (other)
chain: MQNSQDYFYAQNRCQQQQAPSTLRTVTMAEFRRVPLPPMAEVPMLSTQNSMGSSASASASSLEMWEKDLEERLNSIDHDMNNNKFGSGELKSMFNQGKVEEMDF
notes: Immobilized on the BIAcore chip in the biosensor experiments; also called YML058W product
Kd [1]: ~250 nM

B2: Sml1p: 104 amino acid yeast protein encoded by YML058w (SML1) that binds Rnr1 and inhibits ribonucleotide reductase; recombinant, expressed in E. coli (protein)
chain: MQNSQDYFYAQNRCQQQQAPSTLRTVTMAEFRRVPLPPMAEVPMLSTQNSMGSSASASASSLEMWEKDLEERLNSIDHDMNNNKFGSGELKSMFNQGKVEEMDF
association rate constant [2, 3]: about 153000 M^1s^−1 | dissociation rate constant [2, 3]: 0.04 s⁻¹ | maximal binding ([2]; Rnr1p bound to immobilized Sml1p (91 RU)): 691 RU | Kd ([2]; immobilized Sml1p, mobile phase Rnr1p, 22° C., response at equilibrium fitted to one site binding model, read-out: equilibrium dissociation constant (KD)): 400 nM
